For 19 molecules, FACS MFI results are on record in patent publication US20230095569A1.

In assay [1] the target is Rhesus monkey Claudine18.2 (Rhesus monkey) (UniProt F6YQY3). Briefly: FACS on CHOK1-rh18.2 cells.
The target in assay [2] is mouse Claudine18.2 (mouse) (UniProt P56857). Nature of the assay: FACS on CHOK1-m18.2 cells.

B1: Ab26 (antibody, V domains shown)
VH: EVMLVESGGGLVKPGGSLKLSCTASGFTFRSYTMSWVRQTPEKRLEWVATITGGGGNTYFLDSVKGRFTFSRDNAKNALYLQMNSLRSEDTALYYCARLGQTQRNAMDYWGQGTSVTVSS
VL: DIVMTQSPSSLSVSAGEKVTMSCKSSQSLLNSGNQMNYLAWYQQKPGQPPKLLIYGASTRESGVPDRFTGSGSGTDFTLTISSVQAEDLAIYYCQNDHTYPLTFGAGTKLEL
As for B1, the FACS MFI in assay [1] was 8290; in assay [2], 15700.

B2: Ab06 (antibody, V domains shown)
VH: EVQLVASGGGLVKPGGSLKLSCAASGITFRSYAMSWVRQTPEKRLEWVATITDGGSYIFYPDNVKGRFTISGDHAKNNLYLQMSHLKSEDTALYFCVRLYYGNSFAYWGQGTLVTVSA
VL: DIVMTQSPSSLTVTAGEKVTLNCKSSQSLFNSGNQKNYLTWYQQKPGQPPKLLIYWASTRESGVPDRFTGSGSGTDFTLTFSSVQAEDLAVYYCQNAYIYPFTFGSGTKLEIK
As for B2, the values for the FACS MFI in assay [1] and in assay [2] were 14000 and 13200, respectively.

B3: Ab11 (antibody, V domains shown)
VH: EVMLVESGGDLVKPGGSLKLSCAASGFTFSRYTMSWVRQTPEKRLEWVATVSVGSGNTYYLDSVKGRFTISRDNAKNTLFLQMNSLRSEDTALYYCTRLGQTQRNAVDYWGQGTSVTVSS
VL: DIVMTQSPSFLSVSAGEKVTMSCKSSQSLFNGGNQKNYLAWYQQKPGQPPKLLIYGASTRDSGVPDRFTGSGSGTDFTLTISNVQAEDLAIYFCQNDHSFPLTFGAGTKLELK
For B3, the FACS MFI in assay [1] was determined as 7800; in assay [2] it was 11200.

B4: Ab03 (antibody, V domains shown)
VH: EVQLQQSGPELVKPGASVKIACKASGYTFTDYNMDWVKQSHGKSLEWIGNINSYYGGTIYNQKFKGKATLTVDKSSSTAYMVLRSLTSEDNAVYYCARPHLGNALDYWGQGTSITVSS
VL: DIVVTQSPSSLTVTPGEKVTMSCKSSQSLFNSGNQKNYLSWYQQNPGQPPKLLIYWASTRQSGVPDRFTGSGSGTDFTLTISSVQAEDLAGYYCQNDYIFPLTFGAGTKLELK
With B4, the figures for the FACS MFI in assay [1] and in assay [2] were 1430 and 2970, respectively.

B5: Ab30 (antibody, V domains shown)
VH: QVQLKESGPGLVAPSQSLSITCTVSGFSLTKFGVNWVRQPPGKGLEWLGAIWGDGSTNYHSALISRLSINKDNSKSQVFLKLSSLQNVDTATYYCAKSGYGNAMDYWGHGTSVTVSS
VL: DIVMTQSPSSLTVTTGEKVTLNCKSSQSLLNSGNLKNYLTWYQQRPGQPPKLLIYWASTRESGVPYRFTGSGSGTDFTLTISNVQAEDLAIYYCQNDYFFPFTFGSGTKLEIK
Turning to B5, the FACS MFI turned out to be 10500 in assay [1] and 9610 in assay [2].

B6: Ab31 (antibody, V domains shown)
VH: QIQLAQSGPELKKPGETVKISCKASGYSFTNYGMNWVKQAPGKGLKWMGWINTYSGETKYADDFKGRFDFSLETSARTAYLQIKNLKIEDTATYFCARRDAMDYWGQGTSVTVSS
VL: DIVMTQAAPSVPVTPGESVSISCRSSKSLLNSNGNTYLYWFLQRPGQSPQLLIYRMSNLASGVPDRFSGSGSGTAFTLRISRVEAEDVGVYYCMQHLEFPFTFGSGTKLEIK
Regarding B6, the values for the FACS MFI in assay [1] and in assay [2] were 8010 and 7790, respectively.

B7: Ab04 (antibody, V domains shown)
VH: EVQLQQSGPELVKPGASVKMSCMASGYTFTDYNIHWVKRSHGSRLEWIGYISPISGGAGYNQKFMDKATLTVDKSSNTAYMELRSLTSEDSAVYYCTRGDYWGQGTTLTVSS
VL: DIVMTQSPSSLAVTVGEKVTMSCKSSQSLLNSGNQKNYLTWYQQKPGQPPKLLIYWASTRKSGVPDRFTGSGSGTDFTLTISSVQAEDLGIYYCLNDYGFPLTFGAGSKLELK
Consider B7, for which the figures for the FACS MFI in assay [1] and in assay [2] were 2130 and 8440, respectively.

B8: Ab27 (antibody, V domains shown)
VH: QVQLQQSGAELVRPGSSVKISCKASGYAFSNYWMNWVKQRPGQGLEWIGQIYPGNGDTNYNGKFKGKATLTADKSSTTAYIQLSSLTSEDSAVYFCTRIYYGNSFAYWGQGTLVTVS
VL: DIVMTQSPSSLTVTAGERVTMSCKSSQSLLNSGNQKNYLTWYQQKPGQPPKLLIYWASTRESGVPDRFTGSGSGTDFTLTISRVQAQDLAVYYCQNDYYYPLTFGAGTKLELK
Take B8: the FACS MFI in assay [1] was found to be 9240; in assay [2], 8240.

B9: Ab05 (antibody, V domains shown)
VH: DVKLVESGEDLVKPGGSLKLSCAASGFTFSNYAMSWVRQTPEKRLEWVAYVSSGGDYIYYADTVKGRFIISRDNARNTLYLQMNSLRSEDTAMYYCARVYFGNSLDYWGQGTTLTVSS
VL: DIVMTQSPSSLTVTAGEKVTLSCKSSQSLLNGGNQKNYLTWYQQRPGQPPKLLIYWASTRESGVPDRFTGSGSGTDFTLIISSVQAEDLAVYYCQNDYYYPWTFGGGTKLEIK
B9: the FACS MFI in assay [1] stood at 9850; in assay [2], 12500.

B10: Ab12 (antibody, V domains shown)
VH: EVMLVESGGGLVKPGGSLKLSCAASGFTFSSYTMSWVRQTPEKRLEWVATIIGGYGNTYYADSVKGRFTISRDSAKNTLYLQMLSLRSEDTALYYCTRLGQTQRNAMDYWGQGTSVTVSS
VL: DILMTQSPSSLSVSAGEKVTMSCKSSQSLLNSGNQRNYLAWYQQKPGQPPKLLIYGASTRESGVPDRFTGSGSGTDFTLTISSVQAEDLAVYYCQNDYYYPLTFGAGTKLELK
In the case of B10, the values for the FACS MFI in assay [1] and in assay [2] were 7610 and 13100, respectively.

B11: Ab13 (antibody, V domains shown)
VH: EVRLVESGGGLVKPGGSLKLSCAGSGFTFSSYTMSWVRQTPEKRLEWVATITIGVNIYYLDSVKGRFTISRDNAKNTLYLQMNSLRSEDTALYYCTRLGQTQRNAMDYWGQGTSVTVSS
VL: DIVMTQSPTSLSVSAGEKVTMTCKSSQSLLNSGNQKNYLAWYQEKPGQPPKLLIYGASTRESGVPDRFTGSGSGTDFTLTISSVQAEDLAVYYCQNNHFYPLTFGAGTKLELK
Regarding B11, the FACS MFI turned out to be 5630 in assay [1] and 12500 in assay [2].

B12: Ab01 (antibody, V domains shown)
VH: DVQLQESGPGLVKPSQSLSLTCSVTGYSITSGYYWNWIRQFPGNKLEWMGYITYDGSNNYNPSLKNRISITRDTSKNQFFLKLNSVTTEDAATYFCARDPNYYGTTLPAWFVYWGQGTLVTVSA
VL: DIVVTQSHKFMSTSVGDRVSITCKASQDVGTAVAWYQQKPGQSPKLLIYWASTRHTGVPDRFTGSGSGTDFTLTISNVQSEDLTDYFCQQYSSYVTFGAGTKLELK
Turning to B12, the FACS MFI was 8380 in assay [1] and 12700 in assay [2].

B13: Ab07 (antibody, V domains shown)
VH: EVQLQQSGPELVKPGASVKISCKASGYSFTDYFMNWVKQSHGKGLEWIGRINPYNGDTFYNQKFKGKATLTVDKSSSTAHMELLSLTSEDFAVYYCALYDGYWGAFVYWGQGTLVTVSA
VL: DIQMTQSPASLSVFVGETVTITCRASENIYSNLAWYQQKQGKSPQLLVYAATNLADGVPSRFSGSGSGTQYSLKINSLQSEDFGSYYCQHFWGTPLTFGAGTKLELK
As to B13, the FACS MFI in assay [1] came to 9040; in assay [2] it was 15000.

B14: Ab09 (antibody, V domains shown)
VH: EVQLQQSGPELVKPGTSVKMSCKASGYTFTDYNMHWVKLSHGKSLEWIGYINPNNGGTIYNQRFKGKATLTVNKSSRTAYMDLRSLTSEDSAVYYCARQGYYGNSMDYWGQGNSVTVSS
VL: DIVMTQSPSSLTVTPGERVTMSCKSSQSLLNGGNQRNYLTWYQQKPGQPPKLLIYWASTRESGVPDRFAGSGSGTDFTLTISRVQAEDLSFYYCQNSYFYPFTFGSGTKLDLR
On to B14, for which the FACS MFI is 8100 in assay [1] and 12600 in assay [2].

B15: Ab35 (antibody, V domains shown)
VH: DVFLQESGPGLVKPSQSLSLTCTVTGYSITSDYAWNWIRQFPGNKLEWVTYIGYSGTTSYNPSLKSRISITRDTSKNQFFLQLNSVSTEDTATYYCVRRGSYYGSYWFFDVWGAGTTVTVSS
VL: QVVLSQSPAILSASPGEKVTMTCRASSSVSYMHWYQQKPGSSPKPWIYATSNLASGVPPHFSGSGSGTSYSLTISRVEAEDAATYYCQQWTSNPPTFGGGTKLEIK
In the case of B15, the FACS MFI in assay [1] is 8340; in assay [2], 9610.

B16: Ab34 (antibody, V domains shown)
VH: EVLLQQSGPELVKPGASVKIPCKASGYTFSDYNMDWVKQSHGKSLEWIGHINPNNDNTIYNQKFKGKATLTVDKSSNTAYMDLRSLSSEDTAVYYCARGAYYGNSMDYWGQGTSVTVSS
VL: DIVMTQSPSSLTVTAGERVTMSCKSSQSLLNGGNQRNYLTWYQQKPGQSPKLLIYWASTWESGVPDRFTGSGSGTDFTLTISSVQAEDLAVYYCQNAYFYPYTFGGGTKLEIK
Regarding B16, the FACS MFI in assay [1] turned out to be 6720; in assay [2] it was 10700.

B17: Ab29 (antibody, V domains shown)
VH: EVLLQQSGPELVKPGASVKIPCKASGYTLTDHSMDWVKQSHGKSLEWIGNILPNNGGNIYNQKFRGKATLTVDKSSSTAYMELRSLTSEDTAVYNCARGHYGNSFAYWGQGTLVIVS
VL: DIVMTQSPSSLTVRAGEKVTIYCKSSQSLFNSGNQKNYLTWYQQKPGQPPKLLIYWASTRESGVPHRFTGSGSGTDFTLTISSMQADDLATYYCQNGYFFPYTFGGGTKLEIK
With B17, the values for the FACS MFI in assay [1] and in assay [2] were 25700 and 21900, respectively.

B18: Ab25 (antibody, V domains shown)
VH: EAQLQQSGPELVKPGASVKIFCKASGYTFTDYYINWVKQSHGKSLEWIGDINPNNGGTTYNQKFKGKATLTVDKSSSTASMELRRLTSEDSSVYYCARRDAMDYWGQGTSVTVSS
VL: DIVMTQSQKFMSTTVGDRVSITCTASQNVGPAVAWYQQKPGQSPKLLIYSASRRFTGVPDRFTGSGSGTVFTLTINNVQSEDLADYFCQQYISYPLTFGAGTKLELK
For the molecule B18, the FACS MFI in assay [1] is 12000; in assay [2], 23400.

B19: Ab37 (antibody, V domains shown)
VH: EVKLEESGGGLVQPGGSMKLSCVASGFTFSNYWMNWVRQYPEQGLEWVAQIRLNSDNYATHYAESVKGRFTISRDDSRSTVYLQMNNLRAEDTGIYYCTGGGEYWGQGTTLTVSS
VL: DIVMTQSQKFMSTTIGDRVSITCKASQNVDTAVAWYQQKPGQSPKLLIYSASTRYTGVPDRFTGSGSGTDFTLTISNMQSEDLADYFCQQYISYQLTFGAGTKLELK
Take B19: the FACS MFI is 16700 in assay [1] and 18600 in assay [2].
